Source: article PMC5959768 (Cell, 2018)

Molecular target: Gβ1/Gγ2(C68S) complex (human, UniProt P62873 1-340; P59768 1-71, C68S)
Assay: SEC

Sequence of Gβ1/Gγ2(C68S) complex (P62873 whole entry, chain 1 of 2): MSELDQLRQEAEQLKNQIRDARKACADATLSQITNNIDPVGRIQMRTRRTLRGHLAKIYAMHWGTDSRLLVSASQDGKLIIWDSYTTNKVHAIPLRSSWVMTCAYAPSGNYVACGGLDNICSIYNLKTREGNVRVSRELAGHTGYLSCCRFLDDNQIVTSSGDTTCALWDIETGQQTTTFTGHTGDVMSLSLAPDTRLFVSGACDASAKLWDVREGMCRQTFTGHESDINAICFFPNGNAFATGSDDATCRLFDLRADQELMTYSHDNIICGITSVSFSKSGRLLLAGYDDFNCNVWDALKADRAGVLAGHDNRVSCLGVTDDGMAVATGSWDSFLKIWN
Sequence of Gβ1/Gγ2(C68S) complex (P59768 whole entry C68S, chain 2 of 2): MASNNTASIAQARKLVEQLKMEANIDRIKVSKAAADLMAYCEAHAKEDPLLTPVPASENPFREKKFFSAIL

- binding result: binds
B1: Wild type human Gαs (residues 7-380 of the short isoform) (natural protein, UniProt P63092-2 7-380, looked up)
chain: SKTEDQRNEEKAQREANKKIEKQLQKDKQVYRATHRLLLLGAGESGKSTIVKQMRILHVNGFNGDSEKATKVQDIKNNLKEAIETIVAAMSNLVPPVELANPENQFRVDYILSVMNVPDFDFPPEFYEHAKALWEDEGVRACYERSNEYQLIDCAQYFLDKIDVIKQADYVPSDQDLLRCRVLTSGIFETKFQVDKVNFHMFDVGGQRDERRKWIQCFNDVTAIIFVVASSSYNMVIREDNQTNRLQEALNLFKSIWNNRWLRTISVILFLNKQDLLAEKVLAGKSKIEDYFPEFARYTTPEDATPEPGEDPRVTRAKYFIRDEFLRISTASGDGRHYCYPHFTCAVDTENIRRVFNDCRDIIQRMHLRQYELL
